The values that follow come from article PMC3447985.

Holding throughout (test): SEC
The target in test [1] is Human apolipoprotein E4 S290C (human) (UniProt P02649).
The target in test [2] is Human apolipoprotein E4 S94C (human) (UniProt P02649).
Test [3] addresses Human apolipoprotein E4 W264C (human) (UniProt P02649).

“Human apolipoprotein E4 S290C (from UniProt P02649 19-317) (natural protein)” came in with a stoichiometry N in test [1] of 4. Take “Human apolipoprotein E4 S94C (from UniProt P02649 19-317) (natural protein)”: the stoichiometry N in test [2] was 4. The substance “Human apolipoprotein E4 W264C (from UniProt P02649 19-317) (natural protein)” came in with a stoichiometry N in test [3] of 4.

As a reminder, the stoichiometry N is the number of molecules, sites or subunits per partner or assembly.
